Experimental data: the MegaScale stability set (Tsuboyama et al. 2023)

B1: EHEE_rd4_0086 (parent)
chain: EIHIRTNGEEQARKVYKMLAKRNYDVKIEQHNGQWVVTAS

Variants of: B1
Assay: folding stability dG (cDNA display proteolysis); higher = more stable
Conditions: PBS, room temperature

Variant	folding stability dG [kcal/mol]
V15C	2.6
V15M	1.62
V15R	0.424
V15D	-0.861
V15S	-0.033
V15F	1.93
V15T	0.624
V15H	0.525
V15Y	1.97
V15E	-0.159
V15W	2.43
V15K	0.551
V15A	1.12
V15Q	0.153
V15I	2.49
V15N	-0.279
V15L	2.35
K14W	2.35
K14V	1.42
K14E	1.68
K14T	1.32
K14Y	2.02
K14L	1.91
K14A	1.86

Variant	folding stability dG [kcal/mol]
K14H	1.53
K14I	1.82
K14G	0.786
K14R	2.12
K14N	1.29
K14D	1.21
K14Q	1.8
K14S	1.34
K14F	1.89
K14M	1.87
K17V	1.91
K17A	2.25
K17F	1.86
K17T	1.91
K17Q	2.1
K17R	2.02
K17H	1.83
K17P	-0.583
K17L	2.08
K17Y	1.99
K17G	1.33
K17M	2.15
K17W	2.11
K17C	3.19

Variant	folding stability dG [kcal/mol]
K17I	2.03
K17S	1.77
K17N	2.07
K17D	2.06
K17E	2.37
L19Y	1.35
L19V	-0.352
L19H	-0.775
L19F	1.72
L19W	1.02
L19M	1.27
L19I	0.108
L19A	-0.32
K21M	2.15
K21V	1.63
K21Q	2.1
K21W	1.61
K21N	1.77
K21A	2.4
K21I	1.82
K21R	1.95
K21P	-0.238
K21T	1.67
K21D	2.13

Variant	folding stability dG [kcal/mol]
K21E	2
K21G	1.82
K21C	2.71
K21H	1.69
K21Y	1.61
K21F	1.7
K21S	2.09
K21L	2.06
A12S	0.335
A12M	0.486
A12I	0.115
A12R	-0.218
A12T	0.108
A12G	0.134
A12F	-0.019
A12L	0.213
A12Y	-0.25
A12C	2.51
A12W	0.477
A12K	-0.265
A12Q	-0.947
A12V	-0.114
M18Q	1.5
M18S	1.35

Variant	folding stability dG [kcal/mol]
M18Y	2.37
M18K	1.37
M18R	1.25
M18D	1.08
M18E	1.67
M18N	1.14
M18A	1.84
M18H	1.54
M18G	0.727
M18W	2.61
M18F	2.25
M18T	1.12
M18V	1.48
M18L	1.82
M18I	1.81
R13C	2.74
R13A	1.03
R13D	0.502
R13V	1.27
R13Q	1.47
R13T	1.18
R13F	1.5
R13L	1.89
R13E	1.04

Variant	folding stability dG [kcal/mol]
R13H	1.32
R13Y	1.85
R13K	1.92
R13S	0.759
R13N	1.36
R13I	1.67
R13G	0.376
R13M	1.79
R13W	2.33
A20T	1.75
A20E	1.52
A20M	2.21
A20Y	1.55
A20H	1.36
A20W	1.46
A20Q	2.16
A20V	2.18
A20K	2.43
A20I	2.17
A20F	1.58
A20N	0.982
A20D	0.486
A20R	2.14
A20L	2.51

Variant	folding stability dG [kcal/mol]
A20G	0.826
A20S	1.78
Q11W	2.1
Q11S	1.55
Q11T	1.59
Q11Y	2
Q11V	1.61
Y16Q	1.38
Y16K	1.07
Y16R	1.15
Y16T	0.377
Y16S	1.5
Y16E	0.776
Y16A	2.76
Y16M	2.15
Y16L	1.55
Y16V	1.23
Y16N	-0.095
Y16G	1.88
Y16I	0.973
Y16W	1.38
Y16F	1.93
Y16H	1.03
